Results reported in patent publication US7687457B2, “Cyclic molecular framework and derivatives thereof” (The University of Queensland, priority 1999, dated 2010).

Molecular target: N-type voltage-sensitive calcium channels (receptors in rat brain membrane) (rat) (UniProt Q02294)
Sequence of UniProt Q02294 (Q02294 whole entry): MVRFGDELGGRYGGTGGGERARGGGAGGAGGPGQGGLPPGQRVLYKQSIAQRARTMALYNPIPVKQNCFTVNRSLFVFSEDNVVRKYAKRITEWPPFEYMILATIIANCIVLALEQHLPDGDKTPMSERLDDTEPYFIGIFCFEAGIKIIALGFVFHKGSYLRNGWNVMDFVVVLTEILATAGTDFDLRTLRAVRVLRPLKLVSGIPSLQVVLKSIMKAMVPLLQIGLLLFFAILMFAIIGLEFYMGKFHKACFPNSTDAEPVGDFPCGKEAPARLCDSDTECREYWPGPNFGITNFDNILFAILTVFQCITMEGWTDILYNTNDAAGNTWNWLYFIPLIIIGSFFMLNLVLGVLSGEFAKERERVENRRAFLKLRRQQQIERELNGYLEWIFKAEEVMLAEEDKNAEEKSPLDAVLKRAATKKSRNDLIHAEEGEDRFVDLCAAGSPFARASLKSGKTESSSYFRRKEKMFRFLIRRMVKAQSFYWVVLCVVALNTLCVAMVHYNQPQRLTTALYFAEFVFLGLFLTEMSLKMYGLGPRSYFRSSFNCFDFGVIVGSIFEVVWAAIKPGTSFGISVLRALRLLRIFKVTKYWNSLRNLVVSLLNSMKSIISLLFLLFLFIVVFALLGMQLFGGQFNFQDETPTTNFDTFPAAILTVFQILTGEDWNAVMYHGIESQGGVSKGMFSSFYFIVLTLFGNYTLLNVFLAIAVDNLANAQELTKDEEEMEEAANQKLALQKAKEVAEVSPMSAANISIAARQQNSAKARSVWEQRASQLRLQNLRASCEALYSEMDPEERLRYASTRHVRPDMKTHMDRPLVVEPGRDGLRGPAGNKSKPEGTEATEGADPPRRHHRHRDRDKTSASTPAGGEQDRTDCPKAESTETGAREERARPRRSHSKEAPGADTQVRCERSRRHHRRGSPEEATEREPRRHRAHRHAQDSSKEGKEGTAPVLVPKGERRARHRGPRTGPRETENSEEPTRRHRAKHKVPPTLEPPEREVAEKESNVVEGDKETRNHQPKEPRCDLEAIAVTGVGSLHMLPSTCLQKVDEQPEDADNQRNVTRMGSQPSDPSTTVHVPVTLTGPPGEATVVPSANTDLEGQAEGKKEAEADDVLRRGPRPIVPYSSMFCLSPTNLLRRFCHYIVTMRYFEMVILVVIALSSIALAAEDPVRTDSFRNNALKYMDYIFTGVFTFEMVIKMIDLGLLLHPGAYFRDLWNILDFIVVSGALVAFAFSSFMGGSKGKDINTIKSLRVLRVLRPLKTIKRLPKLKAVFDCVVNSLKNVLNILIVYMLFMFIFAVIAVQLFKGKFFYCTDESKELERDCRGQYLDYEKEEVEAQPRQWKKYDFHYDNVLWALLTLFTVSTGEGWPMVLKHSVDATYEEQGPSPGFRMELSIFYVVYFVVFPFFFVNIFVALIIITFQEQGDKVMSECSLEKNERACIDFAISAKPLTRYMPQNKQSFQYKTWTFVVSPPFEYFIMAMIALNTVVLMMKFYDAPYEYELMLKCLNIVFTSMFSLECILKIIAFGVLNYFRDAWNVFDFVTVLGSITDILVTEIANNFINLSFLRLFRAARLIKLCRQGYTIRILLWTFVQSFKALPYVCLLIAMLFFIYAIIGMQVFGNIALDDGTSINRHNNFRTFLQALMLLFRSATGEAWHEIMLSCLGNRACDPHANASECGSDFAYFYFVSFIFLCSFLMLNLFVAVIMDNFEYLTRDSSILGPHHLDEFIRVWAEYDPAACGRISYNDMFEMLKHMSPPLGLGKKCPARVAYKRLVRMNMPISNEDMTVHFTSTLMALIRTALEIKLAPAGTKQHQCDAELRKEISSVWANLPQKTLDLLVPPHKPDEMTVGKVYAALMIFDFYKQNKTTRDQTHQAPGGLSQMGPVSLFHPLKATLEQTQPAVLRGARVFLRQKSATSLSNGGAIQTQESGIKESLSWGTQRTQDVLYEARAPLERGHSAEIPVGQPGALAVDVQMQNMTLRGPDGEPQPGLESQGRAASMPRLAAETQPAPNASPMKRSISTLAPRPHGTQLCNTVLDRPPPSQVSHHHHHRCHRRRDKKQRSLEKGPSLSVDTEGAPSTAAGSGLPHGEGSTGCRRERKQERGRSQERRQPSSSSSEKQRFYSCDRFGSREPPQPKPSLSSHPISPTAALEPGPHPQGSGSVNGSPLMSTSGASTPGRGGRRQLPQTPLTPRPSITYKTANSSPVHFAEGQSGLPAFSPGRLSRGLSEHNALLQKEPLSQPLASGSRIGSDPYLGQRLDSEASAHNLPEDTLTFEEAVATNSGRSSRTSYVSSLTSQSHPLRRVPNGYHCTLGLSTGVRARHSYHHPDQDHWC

ω-conotoxin MVIIA (from UniProt P05484 46-70) (peptide)
EC50: 0.044 nM
